Assay [1] has as its target T1, 重组人CD73蛋白 (自主表达的人源CD73蛋白, C端6×His标签) (human, UniProt P21589 27-549, limits assumed).
T1 sequence: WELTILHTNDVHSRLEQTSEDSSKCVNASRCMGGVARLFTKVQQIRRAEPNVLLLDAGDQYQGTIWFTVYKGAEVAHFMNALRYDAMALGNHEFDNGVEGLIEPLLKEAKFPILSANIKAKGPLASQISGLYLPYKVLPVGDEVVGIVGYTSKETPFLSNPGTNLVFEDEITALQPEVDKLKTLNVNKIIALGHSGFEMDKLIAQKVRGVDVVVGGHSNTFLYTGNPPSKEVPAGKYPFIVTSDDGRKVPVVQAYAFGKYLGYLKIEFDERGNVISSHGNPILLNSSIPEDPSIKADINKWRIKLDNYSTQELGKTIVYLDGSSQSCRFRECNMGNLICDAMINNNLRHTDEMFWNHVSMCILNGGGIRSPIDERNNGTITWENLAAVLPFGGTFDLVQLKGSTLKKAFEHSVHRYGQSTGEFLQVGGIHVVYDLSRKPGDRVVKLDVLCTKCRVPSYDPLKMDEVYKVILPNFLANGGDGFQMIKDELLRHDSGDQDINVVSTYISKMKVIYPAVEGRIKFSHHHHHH
Description: SPR, Biacore T200, antibody captured on CM5 chip, human CD73 as analyte, 25℃, 1:1 model. In general terms: SPR reads the build-up and loss of mass on a sensor chip optically.

For assay [2], the target named is T1, 重组人CD73蛋白 (自主表达的人源CD73蛋白, C端6×His标签). Description: SPR, Biacore T200, antibody captured by anti-mouse Fc IgG on CM5 chip, human CD73 as analyte, 25℃, 1:1 model.

B1: MEDI-9447 (MedImmune公司的抗CD73单克隆抗体) (antibody, V domains shown)
VH: EVQLLESGGGLVQPGGSLRLSCAASGFTFSSYAYSWVRQAPGKGLEWVSAISGSGGRTYYADSVKGRFTISRDNSKNTLYLQMNSLRAEDTAVYYCARLGYGRVDEWGRGTLVTVSS
VL: QSVLTQPPSASGTPGQRVTISCSGSLSNIGRNPVNWYQQLPGTAPKLLIYLDNLRLSGVPDRFSGSKSGTSASLAISGLQSEDEADYYCATWDDSHPGWTFGGGTKLTVL
Usually Kd stands for the free concentration of one partner at which half of the binding sites on the other are occupied at equilibrium, for simple one-to-one binding. Low values mean a tighter complex, high ones a looser complex. What is called koff is the first-order rate constant of dissociation. A high value points to a short-lived complex. In general, kon refers to the rate constant with which the complex forms. Higher therefore signals fast association. For the molecule B1, in assay [1], the Kd was found to be 140 pM, the koff turned out to be 3.91e-05 s⁻¹ and the kon was 278000 M⁻¹ s⁻¹.

B2: 抗人CD73单克隆抗体7-C10-Ba-C2 (antibody, V domains shown)
VH: EVQLQQSGPELVKPGASMKISCKASGYSFTGYTMNWVKQSHGKNLEWIGFITPYNGDTIYNQKFKGKATVTVDKSSSTAYMDLLSLTSEDSAVYYCAREGYDGGYFDYWGQGTTLTVSS
VL: DIQMTQSPASLSASVGETVTITCRASENIYSYLAWYQQKQGKSPQLLVYNTQTLAEGVPSRFSGSGSGTQFSLKINSLQPEDFGSYYCQHHYGTPMYPFGGGTKLEIK
notes: Mouse (BALB/c) hybridoma antibody, IgG type, purified from ascites; also called 本发明抗体7-C10-Ba-C2; 本发明的抗CD73单抗
In assay [2], B2 yielded a Kd of 416 pM, an off-rate (koff) of 3.21e-05 s⁻¹ and a kon of 77200 M⁻¹ s⁻¹.

The values above are taken from patent publication CN114907480A (JIANGSU XINTRUM PHARMACEUTICALS CO LTD, dated 2022).
